Measured values published in IntAct's records for PubMed 22068056.

B1: SWI/SNF-related matrix-associated actin-dependent regulator of chromatin subfamily D member 3 (Mus musculus), Q6P9Z1 (parent)
chain: MAADEVAGGARKATKSKLFEFLVHGVRPGMPSGARMPHQGAPMGPPGSPYMGSPAVRPGLAPAGMEPARKRAAPPPGQSQAQGQGQPVPTAPARSRSAKRRKMADKILPQRIRELVPESQAYMDLLAFERKLDQTIMRKRVDIQEALKRPMKQKRKLRLYISNTFNPAKPDAEDSDGSIASWELRVEGKLLDDPSKQKRKFSSFFKSLVIELDKDLYGPDNHLVEWHRTPTTQETDGFQVKRPGDLSVRCTLLLMLDYQPPQFKLDPRLARLLGLHTQSRSAIVQALWQYVKTNRLQDSHDKEYINGDKYFQQIFDCPRLKFSEIPQRLTALLLPPDPIVINHVISVDPSDQKKTACYDIDVEVEEPLKGQMSSFLLSTANQQEISALDSKIHETIESINQLKIQRDFMLSFSRDPKGYVQDLLRSQSRDLKVMTDVAGNPEEERRAEFYHQPWSQEAVSRYFYCKIQQRRQELEQSLVVRNT

Variants of: B1
Conditions: with smca4_mouse Smarca4, Q3TKT4
Sequence of smca4_mouse Smarca4, Q3TKT4 (Q3TKT4 whole entry): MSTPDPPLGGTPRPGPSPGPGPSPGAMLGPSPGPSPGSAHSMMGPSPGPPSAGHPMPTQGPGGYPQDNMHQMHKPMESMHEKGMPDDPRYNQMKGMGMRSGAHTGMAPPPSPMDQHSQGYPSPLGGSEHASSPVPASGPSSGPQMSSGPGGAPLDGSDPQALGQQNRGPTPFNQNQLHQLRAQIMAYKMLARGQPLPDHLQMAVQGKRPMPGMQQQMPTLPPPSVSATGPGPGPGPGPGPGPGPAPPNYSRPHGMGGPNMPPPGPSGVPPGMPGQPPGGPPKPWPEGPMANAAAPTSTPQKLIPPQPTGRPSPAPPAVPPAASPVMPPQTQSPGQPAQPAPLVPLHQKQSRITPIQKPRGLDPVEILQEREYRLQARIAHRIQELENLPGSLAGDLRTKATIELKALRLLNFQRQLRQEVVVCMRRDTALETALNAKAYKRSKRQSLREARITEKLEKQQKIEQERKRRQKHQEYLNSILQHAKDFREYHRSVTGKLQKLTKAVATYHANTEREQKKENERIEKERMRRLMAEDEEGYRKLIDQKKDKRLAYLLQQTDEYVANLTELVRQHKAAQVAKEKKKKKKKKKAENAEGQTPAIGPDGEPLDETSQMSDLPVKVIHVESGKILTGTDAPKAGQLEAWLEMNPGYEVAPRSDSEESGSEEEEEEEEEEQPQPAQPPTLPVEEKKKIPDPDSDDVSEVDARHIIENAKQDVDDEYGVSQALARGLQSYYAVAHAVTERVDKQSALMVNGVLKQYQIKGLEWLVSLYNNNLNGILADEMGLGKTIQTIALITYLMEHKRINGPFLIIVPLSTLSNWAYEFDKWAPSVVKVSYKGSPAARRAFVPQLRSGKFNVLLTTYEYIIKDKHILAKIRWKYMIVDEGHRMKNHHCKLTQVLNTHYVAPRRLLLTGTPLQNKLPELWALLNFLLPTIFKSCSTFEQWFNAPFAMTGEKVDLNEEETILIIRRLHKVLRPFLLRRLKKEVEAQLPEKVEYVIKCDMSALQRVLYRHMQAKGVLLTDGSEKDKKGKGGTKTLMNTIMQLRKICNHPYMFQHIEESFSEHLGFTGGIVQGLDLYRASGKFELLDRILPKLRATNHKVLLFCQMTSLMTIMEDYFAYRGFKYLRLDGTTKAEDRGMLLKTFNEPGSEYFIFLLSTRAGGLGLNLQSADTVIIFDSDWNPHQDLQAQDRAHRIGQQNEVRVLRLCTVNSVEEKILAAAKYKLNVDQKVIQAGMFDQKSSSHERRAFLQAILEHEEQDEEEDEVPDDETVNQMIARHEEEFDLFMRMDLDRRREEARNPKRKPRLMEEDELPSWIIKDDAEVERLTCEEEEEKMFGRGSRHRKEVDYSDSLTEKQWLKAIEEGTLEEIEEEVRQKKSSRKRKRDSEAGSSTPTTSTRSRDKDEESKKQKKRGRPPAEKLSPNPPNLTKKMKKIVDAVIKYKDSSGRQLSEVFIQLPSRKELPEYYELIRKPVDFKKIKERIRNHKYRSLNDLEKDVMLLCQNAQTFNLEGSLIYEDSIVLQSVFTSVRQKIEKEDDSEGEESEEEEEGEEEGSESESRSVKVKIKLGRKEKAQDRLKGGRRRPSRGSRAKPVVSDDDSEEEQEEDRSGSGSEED

MAADEVAGGARKATKSKLFEFLVHGVRPGMPSGARMPHQGAPMGPPGSPYMGSPAVRPGLAPAGMEPARKRAAPPPGQSQAQGQGQPVPTAPARSRSAKRRKMADKILPQRIRELVPESQAYMDLLAFERKLDQTIMRKRVDIQEALKRPMKQKRKLRLYISNTFNPAKPDAEDSDGSIASWELRVEGKLLDDPSKQKRKFSSFFKSLVIELDKDLYGPDNHLVEWHRAPTTQETDGFQVKRPGDLSVRCTLLLMLDYQPPQFKLDPRLARLLGLHTQSRSAIVQALWQYVKTNRLQDSHDKEYINGDKYFQQIFDCPRLKFSEIPQRLTALLLPPDPIVINHVISVDPSDQKKTACYDIDVEVEEPLKGQMSSFLLSTANQQEISALDSKIHETIESINQLKIQRDFMLSFSRDPKGYVQDLLRSQSRDLKVMTDVAGNPEEERRAEFYHQPWSQEAVSRYFYCKIQQRRQELEQSLVVRNT [T229A] was tested. Which “effect of a mutation on the interaction” value did it give?
The value was “disrupting interaction”.
